Laboratory results published in US20080004215.

Key:
[1] = molecular target: WGMDY1 (WGMDY1 fused to a 10-mer cell-penetrating peptide sequence of HIV tat-1 protein, unphosphorylated form)
[2] = molecular target: pWGMDY1 (WGMDY1 fused to a 10-mer cell-penetrating peptide sequence of HIV tat-1 protein, phosphorylated form)

B1: purified glutathione S-transferase (GST) fusion of the phosphatase domain of SHP2 (protein)
chain: GFWEEFETLQQQECKLLYSRKEGQRQENKNKNRYKNILPFDHTRVVLHDGDPNEPVSDYINANIIMPEFETKCNNSKPKKSYIATQGCLQNTVNDFWRMVFQENSRVIVMTTKEVERGKSKCVKYWPDEYALKEYGVMRVRNVKESAAHDYTLRELKLSKVGQGNTERTVWQYHFRTWPDHGVPSDPGGVLDFLEEVHHKQESIMDAGPVVVHCSAGIGRTGTFIVIDILIDIIREKGVDCDIDVPKTIQMVRSQRSGMVQTEAQYRFIYMAVQHYIETLQRRIEEEQKSKRKGHEYTNIKYSLADQTSGDQSPLPPCTPTPPCAEMREDSARVYENVGLMQQQKSFR
in vitro phosphatase assay: dephosphorylation of para-nitrophenolphosphate (pN) by P, absorbance (OD) at 405 nm at the 5 minutes time point [1]: Addition of pWGMDY1, but not WGMDY1, inhibited the dephosphorylation reaction | in vitro phosphatase assay: dephosphorylation of para-nitrophenolphosphate (pN) by P, absorbance (OD) at 405 nm at the 5 minutes time point [2]: Addition of pWGMDY1, but not WGMDY1, inhibited the dephosphorylation reaction
